Data from US6428967 (University of Texas, dated 2002).
One block for each binder: values may come before it.

Key:
[1] = molecular target: T1, Disabled-1 (Dab1), two-hybrid prey in pB42AD (UniProt P97318-2 1-555); test: yeast two-hybrid, LexA tail bait against B42AD-Dab1
T1 sequence (looked up): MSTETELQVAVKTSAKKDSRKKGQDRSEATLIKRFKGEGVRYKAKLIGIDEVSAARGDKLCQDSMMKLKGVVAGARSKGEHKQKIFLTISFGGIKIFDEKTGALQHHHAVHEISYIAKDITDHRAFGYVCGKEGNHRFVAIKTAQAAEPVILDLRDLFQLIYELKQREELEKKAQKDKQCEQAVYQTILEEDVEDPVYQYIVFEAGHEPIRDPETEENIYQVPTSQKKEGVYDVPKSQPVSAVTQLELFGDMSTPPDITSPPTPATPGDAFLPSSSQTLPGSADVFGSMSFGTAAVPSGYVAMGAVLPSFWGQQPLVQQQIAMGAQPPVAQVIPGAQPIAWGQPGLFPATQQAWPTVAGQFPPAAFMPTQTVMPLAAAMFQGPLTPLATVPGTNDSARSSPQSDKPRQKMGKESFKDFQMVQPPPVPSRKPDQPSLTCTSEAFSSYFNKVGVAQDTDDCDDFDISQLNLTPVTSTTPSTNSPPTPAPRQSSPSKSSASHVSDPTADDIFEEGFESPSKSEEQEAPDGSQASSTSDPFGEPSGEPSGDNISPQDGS
Description: All LDL receptor family cytoplasmic tail LexA fusion proteins were constructed using the pLexA vector ([…] system, CLONTECH). […] PCR products were subcloned into the EcoRI and NcoI sites of pLexA for the Megalin and VLDL Receptor, and into EcoRI and BarnHI sites for the other receptors. […] All constructs were sequenced after cloning, and all bait vectors were tested for self-activation. Bait and prey vectors were cotransfected into yeast cells (leucine auxotrophic strain EGY48) using the LiAc method as described in the […] manual (CLONTECH). The two-hybrid assay used two reporters (LEU2 and lacZ) under the control of LexA operators. Cells were spread on selective plates (His-;Leu-;Trp-) and grown for 3 days. Single clones were grown on selective plates in patches and harvested after 2–3 days. To recover DNA from yeast, cells were resuspended in 50 μl STES (0.5M NaCl, 0.2M Tris-HCl pH 7.6, 0.01M EDTA, 1% SDS). Glass beads were added and the cells vortexed vigorously. After addition of 20 μl H2O and 60 μl phenol/chloroform cells were vortexed for 1 more minute and centrifuged (14,000×g, 5 min). The aqueous phase was collected and the DNA was precipitated with EtOH. DNA from positive clones was retransformed into DH5α and checked by DNA sequencing. Yeast mating was performed after transformation of LexA plasmids into the yeast strain YM4271 following the instructions in the […] manual (CLONTECH).
(§1) The ApoER2 tail was tested with (+) and without (−) its alternatively spliced insert. For Megalin and for LRP the complete tails and parts thereof containing a single NPxY motif were tested separately.

[2] = molecular target: T2, PSD-95 (mouse, UniProt Q62108 1-724); test: yeast two-hybrid, LexA tail bait against prey
T2 construct: Yeast two-hybrid prey clone; also called postsynaptic density-95; postsynaptic density protein PSD-95
Description: (§2) PCR products were subcloned into the EcoRI and NcoI sites of pLexA for the Megalin and VLDL Receptor, and into EcoRI and BarnHI sites for the other receptors. […] All constructs were sequenced after cloning, and all bait vectors were tested for self-activation. Bait and prey vectors were cotransfected into yeast cells (leucine auxotrophic strain EGY48) using the LiAc method as described in the […] manual (CLONTECH). The two-hybrid assay used two reporters (LEU2 and lacZ) under the control of LexA operators. Cells were spread on selective plates (His-;Leu-;Trp-) and grown for 3 days. Single clones were grown on selective plates in patches and harvested after 2–3 days. To recover DNA from yeast, cells were resuspended in 50 μl STES (0.5M NaCl, 0.2M Tris-HCl pH 7.6, 0.01M EDTA, 1% SDS). Glass beads were added and the cells vortexed vigorously. After addition of 20 μl H2O and 60 μl phenol/chloroform cells were vortexed for 1 more minute and centrifuged (14,000×g, 5 min). The aqueous phase was collected and the DNA was precipitated with EtOH. DNA from positive clones was retransformed into DH5α and checked by DNA sequencing. Yeast mating was performed after transformation of LexA plasmids into the yeast strain YM4271 following the instructions in the […] manual (CLONTECH).
as §1

[3] = molecular target: T3, JIP-1 (mouse, UniProt Q9WVI9 1-707); test: yeast two-hybrid, LexA tail bait against prey
T3 construct: Yeast two-hybrid prey clone; also called meg11
T3 sequence: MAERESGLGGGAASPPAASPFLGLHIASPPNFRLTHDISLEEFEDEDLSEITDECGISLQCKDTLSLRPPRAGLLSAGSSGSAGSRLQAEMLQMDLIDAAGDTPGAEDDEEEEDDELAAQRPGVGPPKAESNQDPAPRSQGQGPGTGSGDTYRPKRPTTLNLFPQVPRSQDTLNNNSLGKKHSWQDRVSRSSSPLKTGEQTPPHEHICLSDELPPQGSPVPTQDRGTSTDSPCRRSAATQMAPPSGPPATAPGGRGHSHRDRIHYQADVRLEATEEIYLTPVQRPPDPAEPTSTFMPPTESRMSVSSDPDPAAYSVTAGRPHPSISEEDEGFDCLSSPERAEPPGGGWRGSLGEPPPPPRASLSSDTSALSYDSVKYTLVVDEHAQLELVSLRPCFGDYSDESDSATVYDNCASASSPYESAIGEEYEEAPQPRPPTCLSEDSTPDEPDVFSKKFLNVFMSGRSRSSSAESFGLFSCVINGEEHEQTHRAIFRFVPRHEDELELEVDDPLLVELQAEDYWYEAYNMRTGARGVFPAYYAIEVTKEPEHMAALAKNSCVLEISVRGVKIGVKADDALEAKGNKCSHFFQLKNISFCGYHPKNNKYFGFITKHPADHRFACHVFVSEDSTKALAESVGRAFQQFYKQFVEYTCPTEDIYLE
Description: as §2, §1

T2 sequence (Q62108 whole entry): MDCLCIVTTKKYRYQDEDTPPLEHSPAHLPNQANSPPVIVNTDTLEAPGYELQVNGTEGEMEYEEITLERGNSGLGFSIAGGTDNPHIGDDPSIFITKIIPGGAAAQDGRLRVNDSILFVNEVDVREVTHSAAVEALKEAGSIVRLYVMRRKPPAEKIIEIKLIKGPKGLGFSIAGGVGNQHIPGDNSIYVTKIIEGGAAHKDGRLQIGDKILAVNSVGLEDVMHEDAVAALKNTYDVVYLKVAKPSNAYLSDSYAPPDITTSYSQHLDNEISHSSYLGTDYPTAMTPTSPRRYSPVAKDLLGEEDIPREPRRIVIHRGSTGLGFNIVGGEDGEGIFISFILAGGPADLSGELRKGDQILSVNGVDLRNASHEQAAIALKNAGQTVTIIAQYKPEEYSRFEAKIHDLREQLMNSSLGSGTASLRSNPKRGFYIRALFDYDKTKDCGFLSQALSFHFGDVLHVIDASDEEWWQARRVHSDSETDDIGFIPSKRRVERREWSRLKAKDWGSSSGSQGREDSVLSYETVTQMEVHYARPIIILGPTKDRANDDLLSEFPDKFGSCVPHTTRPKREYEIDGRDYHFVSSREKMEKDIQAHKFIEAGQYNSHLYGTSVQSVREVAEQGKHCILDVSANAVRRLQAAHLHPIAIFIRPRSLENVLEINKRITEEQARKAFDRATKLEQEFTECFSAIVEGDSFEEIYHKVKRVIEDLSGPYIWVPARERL

binding result [1]: no binding
B2: MegC, part of the Megalin cytoplasmic tail, LexA fusion protein (MegC human) (receptor, not shown: large carriers)
chain: GSPINPSEIVPETNPTSPAADGTQVTKWNLFKRKSKQTTNFENPIYAQMENEQKESVAATPPPSPSLPAKPKPPSRRDPTPTYSATEDTFKDTANLVKEDSEV
notes: LexA fusion bait of the two-hybrid assay

binding result [2]: binds
B3: ApoER2 cytoplasmic tail with its alternatively spliced insert, LexA fusion protein (ApoER2+ mouse) (receptor, not shown: large carriers)
chain: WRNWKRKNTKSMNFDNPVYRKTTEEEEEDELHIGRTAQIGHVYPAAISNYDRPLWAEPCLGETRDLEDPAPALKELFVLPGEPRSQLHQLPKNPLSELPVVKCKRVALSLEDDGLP
notes: LexA fusion bait of the two-hybrid assay; also called the ApoER2 tail containing the alternatively spliced insert

Continued, binder first:

B1: MegB, part of the Megalin cytoplasmic tail, LexA fusion protein (MegB human) (receptor, not shown: small tags and cut ends)
chain: SARDSAVKVVQPIQVTVSENVDNKNYGSPINPSEIVPETNPTSPAADGTQVTKWNLFKRKSKQTTNFE
notes: WARNING: the listing's entry 129 (76 residues) begins like the LRP entries 130 and 132, while entry 131 (68 residues) is a stretch of the Megalin entry 127; entries 129 and 131 look exchanged, so MegB is probably entry 131
binding result [1]: no binding

B4: LRPA, part of the LRP cytoplasmic tail, LexA fusion protein (LRPA human) (receptor, not shown: large carriers)
chain: VQGAKGFQHQRMTNGAMNVEIGNPTYKMYEGGEPDDVG
notes: as for B2
binding result [1]: no binding

B5: ApoER2 cytoplasmic tail without its alternatively spliced insert, LexA fusion protein (ApoER2- mouse) (receptor, not shown: large carriers)
chain: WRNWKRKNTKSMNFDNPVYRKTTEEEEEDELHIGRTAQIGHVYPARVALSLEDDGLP
notes: LexA fusion bait of the two-hybrid assay; also called the tail without this insert
binding result [3]: no binding | binding result [2]: no binding
